The chains are these.
B1: LLSGDLIFL (SEQ ID NO: 6) (peptide)
peptide: LLSGDLIFL
notes: synthetic peptide; source gene GJB5
B2: MLTELEKAL (SEQ ID NO: 45) (peptide)
peptide: MLTELEKAL
notes: synthetic peptide; source gene S100A8
B3: YMLDIFHEV (SEQ ID NO: 32) (peptide)
peptide: YMLDIFHEV
notes: synthetic peptide; source gene HAS3
B4: IAAIRGFLV (SEQ ID NO: 38) (peptide)
peptide: IAAIRGFLV
notes: synthetic peptide; source gene ABHD11
B5: KVVGKDYLL (SEQ ID NO: 43) (peptide)
peptide: KVVGKDYLL
notes: synthetic peptide; source gene CAPZB
B6: LLANGVYAA (SEQ ID NO: 15) (peptide)
peptide: LLANGVYAA
notes: synthetic peptide; source gene ANO1
B7: ALWLPTDSATV (SEQ ID NO: 11) (peptide)
peptide: ALWLPTDSATV
notes: synthetic peptide; source gene LAMB3
B8: GLASRILDA (SEQ ID NO: 12) (peptide)
peptide: GLASRILDA
notes: as for B7
B9: LLFAGTMTV (SEQ ID NO: 24) (peptide)
peptide: LLFAGTMTV
notes: synthetic peptide; source gene CYP2S1
B10: LLPPPPPPA (SEQ ID NO: 25) (peptide)
peptide: LLPPPPPPA
notes: synthetic peptide; source gene ADAMTS2
B11: GAIDLLHNV (SEQ ID NO: 55) (peptide)
peptide: GAIDLLHNV
notes: synthetic peptide; source gene GBP5
B12: GLAPFLLNAV (SEQ ID NO: 19) (peptide)
peptide: GLAPFLLNAV
notes: synthetic peptide; source gene FAM115C
B13: FLLRFSQDNA (SEQ ID NO: 36) (peptide)
peptide: FLLRFSQDNA
notes: synthetic peptide; source gene LAP3
B14: SLVSEQLEPA (SEQ ID NO: 34) (peptide)
peptide: SLVSEQLEPA
notes: synthetic peptide; source gene PKP3
B15: LVRDTQSGSL (SEQ ID NO: 39) (peptide)
peptide: LVRDTQSGSL
notes: synthetic peptide; source gene SERPINH1
B16: STYGGGLSV (SEQ ID NO: 1) (peptide)
peptide: STYGGGLSV
notes: synthetic peptide; source gene KRT14, KRT16
B17: TASAITPSV (SEQ ID NO: 3) (peptide)
peptide: TASAITPSV
notes: synthetic peptide; source gene KRT5
B18: VLPKLYVKL (SEQ ID NO: 31) (peptide)
peptide: VLPKLYVKL
notes: synthetic peptide; source genes RPS26P11, RPS26, RPS26P28, RPS26P15, RPS26P25, RPS26P58
B19: NLMASQPQL (SEQ ID NO: 5) (peptide)
peptide: NLMASQPQL
notes: synthetic peptide; source gene PKP1
B20: KLFGHLTSA (SEQ ID NO: 51) (peptide)
peptide: KLFGHLTSA
notes: synthetic peptide; source gene PHTF2
B21: MISRTPEV (SEQ ID NO: 17) (peptide)
peptide: MISRTPEV
notes: synthetic peptide; source genes F7, IGHV4-31, IGHG1, IGHG2, IGHG3, IGHG4, IGHM
B22: FLLDQVQLGL (SEQ ID NO: 18) (peptide)
peptide: FLLDQVQLGL
notes: synthetic peptide; source gene TSPAN10
B23: IVREFLTAL (SEQ ID NO: 21) (peptide)
peptide: IVREFLTAL
notes: synthetic peptide; source gene CRCP
B24: SMHQMLDQTL (SEQ ID NO: 48) (peptide)
peptide: SMHQMLDQTL
notes: synthetic peptide; source gene TPM1
B25: ALVEVTEHV (SEQ ID NO: 56) (peptide)
peptide: ALVEVTEHV
notes: synthetic peptide; source gene TMEM132A
B26: VAIGGVDGNVRL (SEQ ID NO: 52) (peptide)
peptide: VAIGGVDGNVRL
notes: synthetic peptide; source gene WDR1
B27: GLESEELEPEEL (SEQ ID NO: 41) (peptide)
peptide: GLESEELEPEEL
notes: synthetic peptide; source gene PABPN1
B28: YTAQIGADIAL (SEQ ID NO: 46) (peptide)
peptide: YTAQIGADIAL
notes: synthetic peptide; source genes TPSB2, TPSAB1
B29: YTQPFSHYGQAL (SEQ ID NO: 37) (peptide)
peptide: YTQPFSHYGQAL
notes: synthetic peptide; source gene RNPEP
B30: GLDVTSLRPFDL (SEQ ID NO: 33) (peptide)
peptide: GLDVTSLRPFDL
notes: synthetic peptide; source gene FLNA
B31: SLDGFTIQV (SEQ ID NO: 28) (peptide)
peptide: SLDGFTIQV
notes: synthetic peptide; source gene OAS2
B32: SLNGNQVTV (SEQ ID NO: 30) (peptide)
peptide: SLNGNQVTV
notes: synthetic peptide; source gene QSER1
B33: GLMKDIVGA (SEQ ID NO: 49) (peptide)
peptide: GLMKDIVGA
notes: synthetic peptide; source gene KYNU
B34: KLNDTYVNV (SEQ ID NO: 22) (peptide)
peptide: KLNDTYVNV
notes: synthetic peptide; source gene TMEM194A
B35: SLYNLGGSKRISI (SEQ ID NO: 2) (peptide)
peptide: SLYNLGGSKRISI
notes: as for B17
B36: VLASGFLTV (SEQ ID NO: 47) (peptide)
peptide: VLASGFLTV
notes: synthetic peptide; source gene TTPAL
B37: YQDLLNVKM (SEQ ID NO: 54) (peptide)
peptide: YQDLLNVKM
notes: synthetic peptide; source genes DES, NEFM, NEFH, NEFL, VIM, INA
B38: VLAEGGEGV (SEQ ID NO: 16) (peptide)
peptide: VLAEGGEGV
notes: synthetic peptide; source gene PDPN
B39: RLPNAGTQV (SEQ ID NO: 14) (peptide)
peptide: RLPNAGTQV
notes: synthetic peptide; source gene ITGA6
B40: MLAEKLLQA (SEQ ID NO: 26) (peptide)
peptide: MLAEKLLQA
notes: synthetic peptide; source gene FAT1
B41: GLAFSLYQA (SEQ ID NO: 40) (peptide)
peptide: GLAFSLYQA
notes: as for B15
B42: TQTAVITRI (SEQ ID NO: 42) (peptide)
peptide: TQTAVITRI
notes: synthetic peptide; source gene FAM83D
B43: NLREGDQLL (SEQ ID NO: 27) (peptide)
peptide: NLREGDQLL
notes: synthetic peptide; source gene AHNAK2
B44: LLRFSQDNA (SEQ ID NO: 35) (peptide)
peptide: LLRFSQDNA
notes: as for B13
B45: SLSPVILGV (SEQ ID NO: 13) (peptide)
peptide: SLSPVILGV
notes: synthetic peptide; source gene IL36RN
B46: ATGNDRKEAAENSL (SEQ ID NO: 44) (peptide)
peptide: ATGNDRKEAAENSL
notes: synthetic peptide; source gene YWHAE
B47: KLSDSATYL (SEQ ID NO: 23) (peptide)
peptide: KLSDSATYL
notes: synthetic peptide
B48: SLDGTELQL (SEQ ID NO: 29) (peptide)
peptide: SLDGTELQL
notes: synthetic peptide; source gene TMEM102
B49: VVVTGLTLV (SEQ ID NO: 53) (peptide)
peptide: VVVTGLTLV
notes: synthetic peptide; source gene ARHGDIA

Where only a bound is given, the exact number is not on record here.

Here are results for 49 molecules from patent publication US20260028387A1 (published 2026).

For the assay, the target named is T1, HLA-A*02:01 (peptide-receptive MHC class I molecule of the UV-ligand exchange assay) (human).
T1 construct: MHC monomer first loaded with a UV-sensitive peptide (not identified) that is cleaved by UV light and exchanged for the test peptide; captured on streptavidin plates
In words: UV-ligand exchange, anti-b2m ELISA; peptide exchange yield grade (>=10% = +; >=20% = ++; >=50 = +++; >=75% = ++++). The text has this: Candidate peptides for T cell based therapies according to the present invention were further tested for their MHC binding capacity (affinity). The individual peptide-MHC complexes were produced by UV-ligand exchange, where a UV-sensitive peptide is cleaved upon UV-irradiation, and exchanged with the peptide of interest as analyzed. Only peptide candidates that can effectively bind and stabilize the peptide-receptive MHC molecules prevent dissociation of the MHC complexes. To determine the yield of the exchange reaction, an ELISA was performed based on the detection of the light chain (β2m) of stabilized MHC complexes. The assay was performed as generally described in Rodenko et al. (Rodenko et al., 2006).
96 well MAXISorp plates (NUNC) were coated aver night with 2 ug/ml streptavidin in PBS at room temperature, washed 4× and blocked for 1 h at 37° C. in 2% BSA containing blocking buffer. Refolded HLA-A*02:01/MLA-001 monomers served as standards, covering the range of 15-500 ng/ml. Peptide-MHC monomers of the UV-exchange reaction were diluted 100 fold in blocking buffer. Samples were incubated for 1 h at 37° C., washed four times, incubated with 2 ug/ml HRP conjugated anti-02m for 1 h at 37° C., washed again and detected with TMB solution that is stopped with […]. Absorption was measured at 450 nm. Candidate peptides that show a high exchange yield (preferably higher than 50%, most preferred higher than 75%) are generally preferred for a generation and production of antibodies or fragments thereof, and/or T cell receptors or fragments thereof, as they show sufficient avidity to the MHC molecules and prevent dissociation of the MHC complexes.
(In general: In an ELISA, binding on a coated surface is turned into a signal by an enzyme label.)
B1: the peptide exchange yield was in the range of 50 to 75%.
For B2 the value was 20 to 50%; for B3, 20 to 50%.
The molecule B4 came in with a peptide exchange yield of 50 to 75%.
B5 came in with a peptide exchange yield of 10 to 20%.
Molecule B6 showed a peptide exchange yield of 10 to 20%.
Turning to B7, the peptide exchange yield is 50 to 75%.
Consider B8, for which the peptide exchange yield is 50 to 75%.
As to B9, the peptide exchange yield lay within 20 to 50%.
The figure for B10 is 50 to 75%; for B11 it is 20 to 50%.
B12 returned a peptide exchange yield of 50 to 75%.
Molecule B13 registered a peptide exchange yield of 20 to 50%.
For the molecule B14, the peptide exchange yield lay in the range of 50 to 75%.
In turn, B15 registered a peptide exchange yield of 20 to 50%.
As for B16, the peptide exchange yield is 50 to 75%.
As for B17, the peptide exchange yield lay in the range of 50 to 75%.
In the case of B18, the peptide exchange yield is 20 to 50%.
The figure for B19 is 50 to 75%.
Molecule B20 yielded a peptide exchange yield of 20 to 50%.
As to B21, the peptide exchange yield lay in the range of 20 to 50%.
B22: the peptide exchange yield lay within 50 to 75%.
In the case of B23, the peptide exchange yield fell in the range of 50 to 75%.
The figure for B24 is 20 to 50%; for B25 it is 20 to 50%; for B26 it is 20 to 50%.
In turn, B27 returned a peptide exchange yield of 20 to 50%.
The figure for B28 is 50 to 75%; for B29 it is 50 to 75%.
Consider B30, for which the peptide exchange yield lay within 50 to 75%.
The figure for B31 is 20 to 50%; for B32 it is 10 to 20%.
In turn, B33 yielded a peptide exchange yield of 50 to 75%.
Take B34: the peptide exchange yield is 50 to 75%.
The molecule B35 had a peptide exchange yield of no less than 75%.
For the molecule B36, the peptide exchange yield was no less than 75%.
As for B37, the peptide exchange yield lay in the range of 50 to 75%.
The figure for B38 is 50 to 75%; for B39 it is no less than 75%; for B40 it is 10 to 20%.
The molecule B41 displayed a peptide exchange yield of 20 to 50%.
The molecule B42 came in with a peptide exchange yield of 10 to 20%.
B43 registered a peptide exchange yield of 50 to 75%.
The figure for B44 is 50 to 75%; for B45 it is no less than 75%.
B46 gave a peptide exchange yield of 50 to 75%.
In the case of B47, the peptide exchange yield is 50 to 75%.
The figure for B48 is 50 to 75%; for B49 it is 20 to 50%.
